Results as given in the supplement of paper PMC5998384.

Legend:
HeLa Kyoto [1] = assay: solubility in G1/S (NP-40 vs SDS abundance) (log2 ratio); higher = more soluble; conditions: cell cycle stage: G1/S
HeLa Kyoto [2] = assay: solubility change mitosis vs G1/S (difference of NP-40 vs SDS log2 ratios) (log2 ratio difference); higher = more soluble in mitosis
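Wherever solubility change mitosis vs G1/S (difference of NP-40 vs SDS log2 ratios) is given: synchronized HeLa Kyoto cells (double thymidine block for G1/S, nocodazole release for mitosis), protein amounts in NP-40 versus SDS lysates quantified by mass spectrometry, three biological replicates.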
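Wherever solubility in G1/S (NP-40 vs SDS abundance) is given: HeLa Kyoto cells arrested at G1/S by double thymidine block, proteins quantified by TMT10plex mass spectrometry in mild NP-40 versus SDS extracts, three biological replicates.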

Sequence of PEX16 (chain, as listed by the source): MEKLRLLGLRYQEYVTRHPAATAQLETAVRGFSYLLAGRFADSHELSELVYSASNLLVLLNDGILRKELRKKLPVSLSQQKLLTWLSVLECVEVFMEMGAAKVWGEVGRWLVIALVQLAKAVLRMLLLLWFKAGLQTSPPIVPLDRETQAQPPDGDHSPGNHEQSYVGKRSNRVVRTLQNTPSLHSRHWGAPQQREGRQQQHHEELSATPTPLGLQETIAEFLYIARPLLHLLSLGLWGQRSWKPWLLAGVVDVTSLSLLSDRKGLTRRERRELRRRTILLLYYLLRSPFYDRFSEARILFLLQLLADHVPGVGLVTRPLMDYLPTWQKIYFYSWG

Substance: MKFAYRFSNLLGTVYRRGNLNFTCDGNSVISPVGNRVTVFDLKNNKSDTLPLATRYNVKCVGLSPDGRLAIIVDEGGDALLVSLVCRSVLHHFHFKGSVHSVSFSPDGRKFVVTKGNIAQMYHAPGKKREFNAFVLDKTYFGPYDETTCIDWTDDSRCFVVGSKDMSTWVFGAERWDNLIYYALGGHKDAIVACFFESNSLDLYSLSQDGVLCMWQCDTPPEGLRLKPPAGWKADLLQREEEEEEEEDQEGDRETTIRGKATPAEEEKTGKVKYSRLAKYFFNKEGDFNNLTAAAFHKKSHLLVTGFASGIFHLHELPEFNLIHSLSISDQSIASVAINSSGDWIAFGCSGLGQLLVWEWQSESYVLKQQGHFNSMVALAYSPDGQYIVTGGDDGKVKVWNTLSGFCFVTFTEHSSGVTGVTFTATGYVVVTSSMDGTVRAFDLHRYRNFRTFTSPRPTQFSCVAVDASGEIVSAGAQDSFEIFVWSMQTGRLLDVLSGHEGPISGLCFNPMKSVLASASWDKTVRLWDMFDSWRTKETLALTSDALAVTFRPDGAELAVATLNSQITFWDPENAVQTGSIEGRHDLKTGRKELDKITAKHAAKGKAFTALCYSADGHSILAGGMSKFVCIYHVREQILMKRFEISCNLSLDAMEEFLNRRKMTEFGNLALIDQDAGQEDGVAIPLPGVRKGDMSSRHFKPEIRVTSLRFSPTGRCWAATTTEGLLIYSLDTRVLFDPFELDTSVTPGRVREALRQQDFTRAILMALRLNESKLVQEALEAVPRGEIEVVTSSLPELYVEKVLEFLASSFEVSRHLEFYLLWTHKLLMLHGQKLKSRAGTLLPVIQFLQKSIQRHLDDLSKLCSWNHYNMQYALAVSKQRGTKRSLDPLGSEEEAEASEDDSLHLLGGGGRDSEEEMLA [PWP2]
- solubility in G1/S (log2) (HeLa Kyoto [1]): -1.72
- solubility change mitosis (log2) (HeLa Kyoto [2]): 0.632

Substance: MEPLKVEKFATAKRGNGLRAVTPLRPGELLFRSDPLAYTVCKGSRGVVCDRCLLGKEKLMRCSQCRVAKYCSAKCQKKAWPDHKRECKCLKSCKPRYPPDSVRLLGRVVFKLMDGAPSESEKLYSFYDLESNINKLTEDKKEGLRQLVMTFQHFMREEIQDASQLPPAFDLFEAFAKVICNSFTICNAEMQEVGVGLYPSISLLNHSCDPNCSIVFNGPHLLLRAVRDIEVGEELTICYLDMLMTSEERRKQLRDQYCFECDCFRCQTQDKDADMLTGDEQVWKEVQESLKKIEELKAHWKWEQVLAMCQAIISSNSERLPDINIYQLKVLDCAMDACINLGLLEEALFYGTRTMEPYRIFFPGSHPVRGVQVMKVGKLQLHQGMFPQAMKNLRLAFDIMRVTHGREHSLIEDLILLLEECDANIRAS [SMYD3]
- solubility in G1/S (log2) (HeLa Kyoto [1]): -0.0441
- solubility change mitosis (log2) (HeLa Kyoto [2]): -0.167

Substance: MESRDHNNPQEGPTSSSGRRAAVEDNHLLIKAVQNEDVDLVQQLLEGGANVNFQEEEGGWTPLHNAVQMSREDIVELLLRHGADPVLRKKNGATPFILAAIAGSVKLLKLFLSKGADVNECDFYGFTAFMEAAVYGKVKALKFLYKRGANVNLRRKTKEDQERLRKGGATALMDAAEKGHVEVLKILLDEMGADVNACDNMGRNALIHALLSSDDSDVEAITHLLLDHGADVNVRGERGKTPLILAVEKKHLGLVQRLLEQEHIEINDTDSDGKTALLLAVELKLKKIAELLCKRGASTDCGDLVMTARRNYDHSLVKVLLSHGAKEDFHPPAEDWKPQSSHWGAALKDLHRIYRPMIGKLKFFIDEKYKIADTSEGGIYLGFYEKQEVAVKTFCEGSPRAQREVSCLQSSRENSHLVTFYGSESHRGHLFVCVTLCEQTLEACLDVHRGEDVENEEDEFARNVLSSIFKAVQELHLSCGYTHQDLQPQNILIDSKKAAHLADFDKSIKWAGDPQEVKRDLEDLGRLVLYVVKKGSISFEDLKAQSNEEVVQLSPDEETKDLIHRLFHPGEHVRDCLSDLLGHPFFWTWESRYRTLRNVGNESDIKTRKSESEILRLLQPGPSEHSKSFDKWTTKINECVMKKMNKFYEKRGNFYQNTVGDLLKFIRNLGEHIDEEKHKKMKLKIGDPSLYFQKTFPDLVIYVYTKLQNTEYRKHFPQTHSPNKPQCDGAGGASGLASPGC [RNASEL]
- solubility in G1/S (log2) (HeLa Kyoto [1]): -0.104
- solubility change mitosis (log2) (HeLa Kyoto [2]): -0.0377

Substance: PRR14L
- solubility in G1/S (log2) (HeLa Kyoto [1]): -0.0161
- solubility change mitosis (log2) (HeLa Kyoto [2]): 0.0491

Substance: MAVTAQAARRKERVLCLFDVDGTLTPARQKIDPEVAAFLQKLRSRVQIGVVGGSDYCKIAEQLGDGDEVIEKFDYVFAENGTVQYKHGRLLSKQTIQNHLGEELLQDLINFCLSYMALLRLPKKRGTFIEFRNGMLNISPIGRSCTLEERIEFSELDKKEKIREKFVEALKTEFAGKGLRFSRGGMISFDVFPEGWDKRYCLDSLDQDSFDTIHFFGNETSPGGNDFEIFADPRTVGHSVVSPQDTVQRCREIFFPETAHEA [PMM1]
- solubility in G1/S (log2) (HeLa Kyoto [1]): 0.195
- solubility change mitosis (log2) (HeLa Kyoto [2]): 0.102

Substance: MKTSPRRPLILKRRRLPLPVQNAPSETSEEEPKRSPAQQESNQAEASKEVAESNSCKFPAGIKIINHPTMPNTQVVAIPNNANIHSIITALTAKGKESGSSGPNKFILISCGGAPTQPPGLRPQTQTSYDAKRTEVTLETLGPKPAARDVNLPRPPGALCEQKRETCADGEAAGCTINNSLSNIQWLRKMSSDGLGSRSIKQEMEEKENCHLEQRQVKVEEPSRPSASWQNSVSERPPYSYMAMIQFAINSTERKRMTLKDIYTWIEDHFPYFKHIAKPGWKNSIRHNLSLHDMFVRETSANGKVSFWTIHPSANRYLTLDQVFKPLDPGSPQLPEHLESQQKRPNPELRRNMTIKTELPLGARRKMKPLLPRVSSYLVPIQFPVNQSLVLQPSVKVPLPLAASLMSSELARHSKRVRIAPKVLLAEEGIAPLSSAGPGKEEKLLFGEGFSPLLPVQTIKEEEIQPGEEMPHLARPIKVESPPLEEWPSPAPSFKEESSHSWEDSSQSPTPRPKKSYSGLRSPTRCVSEMLVIQHRERRERSRSRRKQHLLPPCVDEPELLFSEGPSTSRWAAELPFPADSSDPASQLSYSQEVGGPFKTPIKETLPISSTPSKSVLPRTPESWRLTPPAKVGGLDFSPVQTSQGASDPLPDPLGLMDLSTTPLQSAPPLESPQRLLSSEPLDLISVPFGNSSPSDIDVPKPGSPEPQVSGLAANRSLTEGLVLDTMNDSLSKILLDISFPGLDEDPLGPDNINWSQFIPELQ [FOXM1]
- solubility in G1/S (log2) (HeLa Kyoto [1]): 0.114
- solubility change mitosis (log2) (HeLa Kyoto [2]): -0.0969

Substance: MLRTAMGLRSWLAAPWGALPPRPPLLLLLLLLLLLQPPPPTWALSPRISLPLGSEERPFLRFEAEHISNYTALLLSRDGRTLYVGAREALFALSSNLSFLPGGEYQELLWGADAEKKQQCSFKGKDPQRDCQNYIKILLPLSGSHLFTCGTAAFSPMCTYINMENFTLARDEKGNVLLEDGKGRCPFDPNFKSTALVVDGELYTGTVSSFQGNDPAISRSQSLRPTKTESSLNWLQDPAFVASAYIPESLGSLQGDDDKIYFFFSETGQEFEFFENTIVSRIARICKGDEGGERVLQQRWTSFLKAQLLCSRPDDGFPFNVLQDVFTLSPSPQDWRDTLFYGVFTSQWHRGTTEGSAVCVFTMKDVQRVFSGLYKEVNRETQQWYTVTHPVPTPRPGACITNSARERKINSSLQLPDRVLNFLKDHFLMDGQVRSRMLLLQPQARYQRVAVHRVPGLHHTYDVLFLGTGDGRLHKAVSVGPRVHIIEELQIFSSGQPVQNLLLDTHRGLLYAASHSGVVQVPMANCSLYRSCGDCLLARDPYCAWSGSSCKHVSLYQPQLATRPWIQDIEGASAKDLCSASSVVSPSFVPTGEKPCEQVQFQPNTVNTLACPLLSNLATRLWLRNGAPVNASASCHVLPTGDLLLVGTQQLGEFQCWSLEEGFQQLVASYCPEVVEDGVADQTDEGGSVPVIISTSRVSAPAGGKASWGADRSYWKEFLVMCTLFVLAVLLPVLFLLYRHRNSMKVFLKQGECASVHPKTCPVVLPPETRPLNGLGPPSTPLDHRGYQSLSDSPPGSRVFTESEKRPLSIQDSFVEVSPVCPRPRVRLGSEIRDSVV [SEMA4B]
- solubility in G1/S (log2) (HeLa Kyoto [1]): 0.234
- solubility change mitosis (log2) (HeLa Kyoto [2]): -0.0944

Substance: PEX16
- solubility in G1/S (log2) (HeLa Kyoto [1]): -0.248
- solubility change mitosis (log2) (HeLa Kyoto [2]): -0.0414

Substance: MADPVAGIAGSAAKSVRPFRSSEAYVEAMKEDLAEWLNALYGLGLPGGGDGFLTGLATGTTLCQHANAVTEAARALAAARPARGVAFQAHSVVPGSFMARDNVATFIGWCRVELGVPEVLMFETEDLVLRKNEKSVVLCLLEVARRGARLGLLAPRLVQFEQEIERELRAAPPAPNAPAAGEDTTETAPAPGTPARGPRMTPSDLRNLDELVREILGRCTCPDQFPMIKVSEGKYRVGDSSLLIFVRVLRSHVMVRVGGGWDTLEHYLDKHDPCRCSSTAHRPPQPRVCTFSPQRVSPTTSPRPASPVPGSERRGSRPEMTPVSLRSTKEGPETPPRPRDQLPPHPRSRRYSGDSDSSASSAQSGPLGTRSDDTGTGPRRERPSRRLTTGTPASPRRPPALRSQSRDRLDRGRPRGAPGGRGAQLSVPSPARRARSQSREEQAVLLVRRDRDGQHSWVPRGRGSGGSGRSTPQTPRARSPAAPRLSRVSSPSPELGTTPASIFRTPLQLDPQQEQQLFRRLEEEFLANARALEAVASVTPTGPVPDPARAPDPPAPDSAYCSSSSSSSSLSVLGGKCGQPGDSGRTANGLPGPRSQALSSSSDEGSPCPGMGGPLDAPGSPLACTEPSRTWARGRMDTQPDRKPSRIPTPRGPRRPSGPAELGTWHALHSVTPRAEPDSWM [GAS2L1]
- solubility in G1/S (log2) (HeLa Kyoto [1]): 0.282
- solubility change mitosis (log2) (HeLa Kyoto [2]): 0.169

Substance: MQPPPRKVKVTQELKNIQVEQMTKLQAKHQAECDLLEDMRTFSQKKAAIEREYAQGMQKLASQYLKRDWPGVKADDRNDYRSMYPVWKSFLEGTMQVAQSRMNICENYKNFISEPARTVRSLKEQQLKRCVDQLTKIQTELQETVKDLAKGKKKYFETEQMAHAVREKADIEAKSKLSLFQSRISLQKASVKLKARRSECNSKATHARNDYLLTLAAANAHQDRYYQTDLVNIMKALDGNVYDHLKDYLIAFSRTELETCQAVQNTFQFLLENSSKVVRDYNLQLFLQENAVFHKPQPFQFQPCDSDTSRQLESETGTTEEHSLNKEARKWATRVAREHKNIVHQQRVLNDLECHGAAVSEQSRAELEQKIDEARENIRKAEIIKLKAEARLDLLKQIGVSVDTWLKSAMNQVMEELENERWARPPAVTSNGTLHSLNADTEREEGEEFEDNMDVFDDSSSSPSGTLRNYPLTCKVVYSYKASQPDELTIEEHEVLEVIEDGDMEDWVKARNKVGQVGYVPEKYLQFPTSNSLLSMLQSLAALDSRSHTSSNSTEAELVSGSLNGDASVCFVKALYDYEGQTDDELSFPEGAIIRILNKENQDDDGFWEGEFNGRIGVFPSVLVEELSASENGDTPWMREIQISPSPKPHASLPPLPLYDQPPSSPYPSPDKRSSLYFPRSPSANEKSLHAESPGFSQASRHTPETSYGKLRPVRAAPPPPTQNHRRPAEKIEDVEITLV [FCHSD2]
- solubility in G1/S (log2) (HeLa Kyoto [1]): 0.194
- solubility change mitosis (log2) (HeLa Kyoto [2]): -0.00785

Substance: SHPRH
- solubility in G1/S (log2) (HeLa Kyoto [1]): -0.418
- solubility change mitosis (log2) (HeLa Kyoto [2]): 0.00438
